Results: US20250163404A1, “PHAGE DISPLAY-BASED CELL-PENETRATING PEPTIDE DISCOVERY PLATFORM AND METHODS OF MAKING AND USING THE SAME” (Eli Lilly and Company, priority 2022, published 2025)

Tests used:
[1] = system: CHO cell lysosomal extracts (active cathepsins); experiment: Phage infectivity after incubation with CHO cell lysosomal extract; assay type: biochemical, Chinese hamster
Procedure: (§1) Subcellular fractionation: cytosolic and endosomal extraction are prepared according to manufactures' protocols from ThermoFisher Scientific (Cat. No. 89842) and Invent Biotechnologies (Cat. No. #ED-028), respectively. The starting cell number is 5×10^6 cells for one cytosolic extraction, and 3×10^7 cells for one endosome extraction. Lysosomal isolation from different cell types are optimized based on an Abcam kit (Cat. No. ab234047) for homogenization step and increased isolation scale. The starting cell number for one lysosomal isolation is 2×10^8 cells.
(§2) Ten rounds of overnight phage culture described above are grown to evaluate substrate sequence retention for each phage clone. Sanger sequencing is performed after each round of phage culture to confirm the substrate insertion. Final phage clones with the substrate insertion are then evaluated for cathepsin accessibility by incubation with lysosomal extract from different mammalian cell lines.
The accessibility of the engineered GS2 linker of the 18 phage clones to active cathepsins (confirmed by fluorogenic cleaving assay) is assessed by incubating phage clones with CHO cell lysosomal extracts at 37° C. The assessment is repeated 4 times with independently isolated lysosome under acidic environment (about pH 5). […] (as shown in the representative graph in FIG. 2).
The accessibility of clone A1 and H4 to active cathepsins is further assessed in lysosomal extracts from CaCo2 and HEK293 cells in addition to CHO cells. […] (see, FIG. 3). CaCo2 lysosome: clone A1 (mean=79.83%, SEM=9.5%) vs. H4 (mean=34.63%, SEM=13.5%), p=0.22, n=3. HEK293 lysosome: clone A1 (mean=75.1%, SEM=9.7%) vs. H4 (mean=9.5%, SEM=1.6%), p=0.018, n=3. CHO lysosome: clone A1 (mean=95.58%, SEM=13.8%) vs. H4 (mean=2.738%, SEM=0.8%), p<0.0001, n=6.

[2] = system: CaCo2 lysosome (lysosomal cathepsins); experiment: Phage infectivity after incubation with CaCo2 lysosomal extract; assay type: biochemical; settings: 30 min. incubation at 37° C., n=3
Procedure: as §1, §2
(§3) The accessibility of clone A1 and H4 to active cathepsins is further assessed in lysosomal extracts from CaCo2 and HEK293 cells in addition to CHO cells. […] (see, FIG. 3). CaCo2 lysosome: clone A1 (mean=79.83%, SEM=9.5%) vs. H4 (mean=34.63%, SEM=13.5%), p=0.22, n=3. HEK293 lysosome: clone A1 (mean=75.1%, SEM=9.7%) vs. H4 (mean=9.5%, SEM=1.6%), p=0.018, n=3. […]

[3] = system: HEK293 lysosome (lysosomal cathepsins); experiment: Phage infectivity after incubation with HEK293 lysosomal extract; assay type: biochemical; settings: 30 min. incubation at 37° C., n=3
Procedure: as §1, §2, §3

B1: H4: engineered M13 IX104 phage clone with FLVIR cathepsin substrate copies in pIII GS2 linker (nucleic acid)
DNA: GCTGAAACTGTTGAAAGTTGTTTAGCAAAATCCCATACAGAAAATTCATTTACTAACGTCTGGAAAGACGACAAAACTTTAGATCGTTACGCTAACTATGAGGGCTGTCTGTGGAATGCTACAGGCGTTGTAGTTTGTACTGGTGACGAAACTCAGTGTTACGGTACATGGGTTCCTATTGGGCTTGCTATCCCTGAAAATGAGGGTGGTGGCTCTGAGGGTGGCGGTTCTGAGGGTGGCGGTTCTGAGGGTGGCGGTACTAAACCTCCTGAGTACGGTGATACACCTATTCCGGGCTATACTTATATCAACCCTCTCGACGGCACTTATCCGCCTGGTACTGAGCAAAACCCCGCTAATCCTAATCCTTCTCTTGAGGAGTCTCAGCCTCTTAATACTTTCATGTTTCAGAATAATAGGTTCCGAAATAGGCAGGGGGCATTAACTGTTTATACGGGCACTGTTACTCAAGGCACTGACCCCGTTAAAACTTATTACCAGTACACTCCTGTATCATCAAAAGCCATGTATGACGCTTACTGGAACGGTAAATTCAGAGACTGCGCTTTCCATTCTGGCTTTAATGAGGATTTATTTGTTTGTGAATATCAAGGCCAATCGTCTGACCTGCCTCAACCTCCTGTCAATGCTGGCGGCGGCTCTTTTTTAGTTATTAGAGGTGGTGGTTCTGGTGGCGGCTCTGAGGGTGGTGGCTCTGAGTTTTTAGTTATTAGAGGTGGCGGTTCTGAGGGTGGCGGCTCTGAGGGAGGCGGTTCCGGTGGTGGCTCTGGTTCCGGTGATTTTGATTATGAAAAGATGGCAAACGCTAATAAGGGGGCTATGACCGAAAATGCCGATGAAAACGCGCTACAGTCTGACGCTAAAGGCAAACTTGATTCTGTCGCTACTGATTACGGTGCTGCTATCGATGGTTTCATTGGTGACGTTTCCGGCCTTGCTAATGGTAATGGTGCTACTGGTGATTTTGCTGGCTCTAATTCCCAAATGGCTCAAGTCGGTGACGGTGATAATTCACCTTTAATGAATAATTTCCGTCAATATTTACCTTCCCTCCCTCAATCGGTTGAATGTCGCCCTTTTGTCTTTAGCGCTGGTAAACCATATGAATTTTCTATTGATTGTGACAAAATAAACTTATTCCGTGGTGTCTTTGCGTTTCTTTTATATGTTGCCACCTTTATGTATGTATTTTCTACGTTTGCTAACATACTGCGTAATAAGGAGTCT
With B1 the infectivity reduction ([1]; CHO lysosomal extract, 37° C., about pH 5) was 9800, the “infectivity (mean)” value ([1]; CHO lysosomal extract, 37° C., about pH 5, n=4) was 2% and the “infectivity (mean)” value ([1]; CHO lysosome, 30 min. incubation at 37° C., n=6) was 2.738%. For the same molecule, the “infectivity (mean)” value [2] was 34.63% and the “infectivity (mean)” value [3] was 9.5%.
